Source: the supplement of paper PMC12042874
± gives the uncertainty stated by the source.

assay: amyloid nucleation score (Sup35N fusion, yeast selection) (log enrichment); library NNK1; higher = more nucleation; inactive = no reads after selection
Summary of the method: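 Sup35N fusions to peptides of 20 random codons were expressed in psi-negative yeast, induced 24 hours with 100 μM copper sulfate, and grown 7 days at 30°C on medium lacking adenine and uracil. Input and output plasmid inserts were sequenced by Illumina. The nucleation score is the DiMSum log enrichment of output over input reads, centred on the mode score of non-aggregating sequences. Sequences with under 100 input reads were excluded.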

Q: For RSSMYKYV, which amyloid nucleation score is on record?
A: The amyloid nucleation score was 0.523 ± 0.26.

Q: With HVSVRSLRAVGVLRRRCGNG as the substance, how does the amyloid nucleation score read?
A: Its amyloid nucleation score is “inactive”.

Q: For TSLYNCRVRRLYFWWLRIML, which amyloid nucleation score is on record?
A: The amyloid nucleation score was 1.14 ± 0.7.

Q: With SVPVQD as the substance, how does the amyloid nucleation score read?
A: The amyloid nucleation score was 0.633 ± 0.4.

Q: Which amyloid nucleation score does the source give for SSGVSNQSIQDIDMRLVYFA here?
A: The amyloid nucleation score was 0.06 ± 0.35.

Q: Which amyloid nucleation score does the source give for ASTSYPWKSGVMVGGKLKNP here?
A: Its amyloid nucleation score is 0.287 ± 0.53.

Q: With VMPRTES as the substance, how does the amyloid nucleation score read?
A: The amyloid nucleation score was 0.408 ± 0.9.

Q: Which amyloid nucleation score does the source give for MGDFND here?
A: The amyloid nucleation score was -1.08 ± 1.4.

Q: Which amyloid nucleation score does the source give for GSCVCECGWIFTARGVRVFK here?
A: The amyloid nucleation score was -0.346 ± 0.42.

Q: For QSISYR, which amyloid nucleation score is on record?
A: The amyloid nucleation score was -0.956 ± 0.7.

Q: Which amyloid nucleation score does the source give for QFRICVAPEFFGRKSLRASD here?
A: The amyloid nucleation score was 0.445 ± 1.2.

Q: For YNLRMDGVCGTVLRYVVEGR, which amyloid nucleation score is on record?
A: The amyloid nucleation score was -0.403 ± 1.4.

Q: Which amyloid nucleation score does the source give for SCVSSLYCH here?
A: Its amyloid nucleation score is 0.057 ± 0.65.

Q: Which amyloid nucleation score does the source give for FGFFWV here?
A: The amyloid nucleation score was 0.099 ± 0.7.

Q: For VFNLMI, which amyloid nucleation score is on record?
A: Its amyloid nucleation score is 0.381 ± 0.28.

Q: Which amyloid nucleation score does the source give for SKSGGHASSNG here?
A: The amyloid nucleation score was 0.649 ± 0.85.

Q: Which amyloid nucleation score does the source give for SFAII here?
A: The amyloid nucleation score was 0.91 ± 0.3.

Q: With KILTVHPSHNDPC as the substance, how does the amyloid nucleation score read?
A: Its amyloid nucleation score is -1.32 ± 1.9.

Q: With CRIIPLYRKFLKHLTCHYIQ as the substance, how does the amyloid nucleation score read?
A: Its amyloid nucleation score is -0.092 ± 0.25.

Q: Which amyloid nucleation score does the source give for DMLWKRWTIYYAFYFKAWGY here?
A: The amyloid nucleation score was 1.08 ± 0.39.

Q: With DYAFKFCFQLVDKAYRSLSY as the substance, how does the amyloid nucleation score read?
A: The amyloid nucleation score was -0.413 ± 0.27.

Q: With FNFRSS as the substance, how does the amyloid nucleation score read?
A: The amyloid nucleation score was -0.618 ± 0.72.

Q: Which amyloid nucleation score does the source give for RPVWHSFHMVFWNSASY here?
A: The amyloid nucleation score was 0.172 ± 0.45.

Q: With VLILELDGS as the substance, how does the amyloid nucleation score read?
A: Its amyloid nucleation score is -1.11 ± 2.7.

Q: With TCRTEKTNTELMG as the substance, how does the amyloid nucleation score read?
A: The amyloid nucleation score was 1.78 ± 0.6.

Q: With FLSYYTCILFPGDMHGSYLS as the substance, how does the amyloid nucleation score read?
A: Its amyloid nucleation score is 7.226 ± 0.055.

Q: For LSYEDSSFNFLNSFYIKSWW, which amyloid nucleation score is on record?
A: The amyloid nucleation score was -0.161 ± 0.5.

Q: Which amyloid nucleation score does the source give for HIESNYRSERTDGWYICRSG here?
A: Its amyloid nucleation score is 1.11 ± 0.2.

Q: For LYMYSLSFLMGGNANHRLGM, which amyloid nucleation score is on record?
A: Its amyloid nucleation score is 1.98 ± 0.16.

Q: Which amyloid nucleation score does the source give for MLACDVISPFCYVNWKRLCR here?
A: Its amyloid nucleation score is 2.43 ± 0.15.

Q: For TRPLQYIQ, which amyloid nucleation score is on record?
A: The amyloid nucleation score was -0.045 ± 1.1.

Q: With FGAVVADGMKLFSVSFS as the substance, how does the amyloid nucleation score read?
A: The amyloid nucleation score was -0.711 ± 0.52.

Q: For SRDEFCG, which amyloid nucleation score is on record?
A: The amyloid nucleation score was -0.326 ± 0.47.

Q: With IVLMLCV as the substance, how does the amyloid nucleation score read?
A: The amyloid nucleation score was -0.097 ± 0.36.

Q: Which amyloid nucleation score does the source give for CRLGNEKGRLKSWQNRSNIC here?
A: The amyloid nucleation score was -0.22 ± 0.59.

Q: Which amyloid nucleation score does the source give for HSGFNVAAYFTSMN here?
A: Its amyloid nucleation score is 0.467 ± 0.9.

Q: With LSWES as the substance, how does the amyloid nucleation score read?
A: The amyloid nucleation score was -0.866 ± 0.73.

Q: Which amyloid nucleation score does the source give for KYSEDLIRQEDVVRYMGTMS here?
A: The amyloid nucleation score was -0.056 ± 0.24.

Q: For CPDLGYACWYIINRIPSTWC, which amyloid nucleation score is on record?
A: The amyloid nucleation score was -1.3 ± 1.2.

Q: With SQLWCLTNKHRKQQRKAGHY as the substance, how does the amyloid nucleation score read?
A: The amyloid nucleation score was 0.027 ± 0.53.

Q: Which amyloid nucleation score does the source give for LMFGLAMVNENPRGLSELRR here?
A: The amyloid nucleation score was 0.065 ± 0.27.

Q: For WFAFIWNNRKCNFRKGTRDV, which amyloid nucleation score is on record?
A: Its amyloid nucleation score is 6.11 ± 0.075.

Q: Which amyloid nucleation score does the source give for CVVESMSIIMRRCSLS here?
A: Its amyloid nucleation score is -0.861 ± 0.42.

Q: Which amyloid nucleation score does the source give for VFLLVPWPVSFGGRIHACEW here?
A: The amyloid nucleation score was 0.286 ± 0.47.

Q: With PVMFVDSMSVWVLLVCYRR as the substance, how does the amyloid nucleation score read?
A: The amyloid nucleation score was 0.19 ± 0.74.

Q: Which amyloid nucleation score does the source give for AVQKVRCRWN here?
A: Its amyloid nucleation score is -0.009 ± 0.23.

Q: Which amyloid nucleation score does the source give for AFMYYMKPSMPIYELRILEG here?
A: The amyloid nucleation score was “inactive”.

Q: With GAPRSCGLAD as the substance, how does the amyloid nucleation score read?
A: Its amyloid nucleation score is 0.27 ± 0.63.

Q: With WCWLCVKRR as the substance, how does the amyloid nucleation score read?
A: The amyloid nucleation score was -0.108 ± 0.56.

Q: For PWQRSSCLGTLVLVTNYDRY, which amyloid nucleation score is on record?
A: The amyloid nucleation score was 0.058 ± 0.44.

Q: With VRFLISHRESVLKSMAGCVV as the substance, how does the amyloid nucleation score read?
A: The amyloid nucleation score was 0.815 ± 0.93.

Q: With NSSLLDISLYDNLVQGSDWP as the substance, how does the amyloid nucleation score read?
A: Its amyloid nucleation score is -0.249 ± 0.57.

Q: With LIARMWANFRRGVSITARF as the substance, how does the amyloid nucleation score read?
A: Its amyloid nucleation score is 0.87 ± 0.87.

Q: With SSLQFEMVFGTCYCRKSYSR as the substance, how does the amyloid nucleation score read?
A: The amyloid nucleation score was 4.19 ± 0.082.

Q: With NSRGT as the substance, how does the amyloid nucleation score read?
A: The amyloid nucleation score was -0.28 ± 0.34.

Q: Which amyloid nucleation score does the source give for WRIEACFSNFARTIFLVSGW here?
A: The amyloid nucleation score was -0.399 ± 0.3.

Q: Which amyloid nucleation score does the source give for SRVSTFGWIIRSEYYFFWAW here?
A: Its amyloid nucleation score is 0.666 ± 0.32.

Q: Which amyloid nucleation score does the source give for NRVHKADHVTYY here?
A: Its amyloid nucleation score is “inactive”.

Q: Which amyloid nucleation score does the source give for YFTNPRCRLDAHGGFANQWW here?
A: Its amyloid nucleation score is -0.977 ± 1.4.

Q: Which amyloid nucleation score does the source give for VSQHSERQGAVCNRCFIVWR here?
A: Its amyloid nucleation score is 6.101 ± 0.057.

Q: With LDCELLQRNFSNTKGHPIYR as the substance, how does the amyloid nucleation score read?
A: Its amyloid nucleation score is 0.052 ± 0.35.

Q: Which amyloid nucleation score does the source give for FIYLENAS here?
A: The amyloid nucleation score was 0.532 ± 0.38.

Q: Which amyloid nucleation score does the source give for EFLRNGLIILIVSLSAGELS here?
A: Its amyloid nucleation score is 0.137 ± 0.23.

Q: Which amyloid nucleation score does the source give for FYTCCMSYVVWIMHVRRLAG here?
A: Its amyloid nucleation score is 0.774 ± 0.56.

Q: For FVVEWWLASRMGLLIRGYRR, which amyloid nucleation score is on record?
A: Its amyloid nucleation score is -0.462 ± 0.58.

Q: Which amyloid nucleation score does the source give for LVPSWRVFVQHLGLFRAL here?
A: Its amyloid nucleation score is 0.333 ± 0.7.

Q: For VMTVMVFMRYRGRFVYG, which amyloid nucleation score is on record?
A: The amyloid nucleation score was -0.041 ± 0.98.

Q: Which amyloid nucleation score does the source give for TNSFSVGCVRIP here?
A: The amyloid nucleation score was 0.657 ± 0.68.

Q: With LFHRIV as the substance, how does the amyloid nucleation score read?
A: Its amyloid nucleation score is -0.353 ± 0.54.

Q: With ESHRRR as the substance, how does the amyloid nucleation score read?
A: The amyloid nucleation score was 0.569 ± 0.62.

Q: For KFSNWTDV, which amyloid nucleation score is on record?
A: Its amyloid nucleation score is -0.164 ± 1.1.

Q: For GGYRVLIFSIFRG, which amyloid nucleation score is on record?
A: The amyloid nucleation score was 0.599 ± 0.51.

Q: For KSQKG, which amyloid nucleation score is on record?
A: The amyloid nucleation score was 0.008 ± 0.36.

Q: For FWSYLSGLVGMYGQIVIKKA, which amyloid nucleation score is on record?
A: Its amyloid nucleation score is 0.059 ± 0.79.

Q: Which amyloid nucleation score does the source give for VEVCRTNWLVEL here?
A: Its amyloid nucleation score is 1.09 ± 0.57.

Q: Which amyloid nucleation score does the source give for LYRCYESG here?
A: The amyloid nucleation score was -0.378 ± 0.27.

Q: Which amyloid nucleation score does the source give for IPSGTVF here?
A: Its amyloid nucleation score is 0.34 ± 0.9.

Q: With VGIILRLVQYSDEYYSCYAG as the substance, how does the amyloid nucleation score read?
A: The amyloid nucleation score was -2.62 ± 2.4.

Q: With SARRRRYGEAGSLGHELQWT as the substance, how does the amyloid nucleation score read?
A: Its amyloid nucleation score is 0.675 ± 0.78.

Q: With ASLTFFS as the substance, how does the amyloid nucleation score read?
A: The amyloid nucleation score was 0.283 ± 0.76.

Q: With AILRHRSVNSGGELCGSKFP as the substance, how does the amyloid nucleation score read?
A: The amyloid nucleation score was 0.293 ± 1.

Q: For ARVGFTLT, which amyloid nucleation score is on record?
A: Its amyloid nucleation score is -0.265 ± 0.87.

Q: For LPFEVRLDCDVVGGG, which amyloid nucleation score is on record?
A: The amyloid nucleation score was 0.725 ± 0.48.

Q: Which amyloid nucleation score does the source give for IKISYEIQAMAVLGM here?
A: Its amyloid nucleation score is “inactive”.

Q: With LPLHAESTGCYGLFSEHFSI as the substance, how does the amyloid nucleation score read?
A: The amyloid nucleation score was -1.27 ± 1.2.

Q: Which amyloid nucleation score does the source give for SSSSYIYCYFFPQSMVMVFS here?
A: Its amyloid nucleation score is 3.66 ± 0.1.

Q: For SCVFLGSWWRCGWMPGSHVP, which amyloid nucleation score is on record?
A: Its amyloid nucleation score is 1.93 ± 0.29.

Q: For RCKELDCSPDSGITVTRSLI, which amyloid nucleation score is on record?
A: The amyloid nucleation score was 1.12 ± 0.63.
